The values below come from patent US20240409635A1 (VIBRANT PHARMA, published 2024).

In test [1] the target is T1, recombinant human protein CD3ε/δ (ACRO systems, CDD-H52W1) (human, UniProt P07766 23-126; P04234 22-105).
T1 construct: Bought heterodimer
In words: BLI, antibody on AHC sensor, antigen as analyte. As for the experimental part: (§1) Antibodies were first captured onto an anti-human IgG Fc coated AHC biosensor (Anti-hIgG Fc, Sartorius, 18-5060). Antibodies were diluted to 5 μg/mL and 1.5 nm protein was coupled to the AHC sensor surface in 0.02% PBST.
(§2) After the sensor captures the antibodies, it binds and dissociates with different concentrations of analytes to obtain the KD value of the interaction. The experimental parameters are as follows: Baseline1: 60 s, Loading: 240 s, Baseline2: 180 s, Association: 240 s, Dissociation: 600 s, High sensitivity kinetics: 2 Hz. Kinetic constants were derived based on the rate equation for 1:1 Langmuir binding to obtain equilibrium dissociation constants (KD). The Data Analysis HT 12 software (Sartorius, 50-5029) was used to simultaneously fit binding and dissociation curves to calculate Kₒₙ and Koff. The affinity KD was calculated based on the below formula: KD=Koff/Kₒₙ.

Test [2] addresses T2, recombinant human tumor antigen CEACAM-6 (ACRO systems, CE6-H5223) (human, UniProt P40199 35-320).
T2 construct: Bought
T2 sequence (looked up): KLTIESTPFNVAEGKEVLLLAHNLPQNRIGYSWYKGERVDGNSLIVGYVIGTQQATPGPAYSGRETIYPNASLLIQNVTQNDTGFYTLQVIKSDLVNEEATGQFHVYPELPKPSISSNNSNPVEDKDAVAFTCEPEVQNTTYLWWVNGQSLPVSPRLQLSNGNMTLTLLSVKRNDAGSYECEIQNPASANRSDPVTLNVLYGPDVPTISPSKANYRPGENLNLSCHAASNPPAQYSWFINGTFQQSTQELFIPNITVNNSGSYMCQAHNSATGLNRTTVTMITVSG
In words: BLI, antibody on AHC sensor, antigen as analyte. As for the experimental part:
as §1, §2

Test [3] addresses T3, recombinant human EGFR protein (ACRO systems, EGR-H5222) (human, UniProt P00533 25-645).
T3 construct: Bought
In words: BLI, antibody on AHC sensor, antigen as analyte. As for the experimental part: as §1, §2

Another test deals with T4, Insulin.
T4 construct: Bought reagent, coated at 5 ug/mL
The test can be described thus: ELISA, insulin coated, 100 nM antibody. As for the experimental part: (§3) The experimental steps are as follows [0420] […] (4) 50 μl anti-human IgG-HRP conjugate (Sigma, AP113P, 1:8000 dilution) was added to each well; the plate was incubated for 1 h at room temperature and washed 6 times with 0.05% PBST; [0424] (5) 50 μl of TMB chromogenic solution (Biopanda, TMB-S-001) was added to each well and incubated at room temperature for 10-15 minutes for color development; [0425] (6) 50 μl of 1M HCl was added to each well to stop the color development, and the absorbance at 450 nm was measured using a microplate reader (Biotek, SYNERGY LX); Data analysis: If the ratio between the absorbance of the antibody and the absorbance of the blank control PBS is ≥3, there is too much non-specific binding.

For test [4], the target named is T5, keyhole limpet haemocyanin.
T5 construct: Bought reagent, coated at 5 ug/mL; also called KLH
The test can be described thus: ELISA, KLH coated, 100 nM antibody. The protocol: as §3

T1 sequence (P07766 23-126, stated change not applied, chain 1 of 2): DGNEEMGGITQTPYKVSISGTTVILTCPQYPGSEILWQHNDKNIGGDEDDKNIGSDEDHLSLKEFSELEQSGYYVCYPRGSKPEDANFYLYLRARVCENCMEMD
T1 sequence (P04234 22-105, stated change not applied, chain 2 of 2): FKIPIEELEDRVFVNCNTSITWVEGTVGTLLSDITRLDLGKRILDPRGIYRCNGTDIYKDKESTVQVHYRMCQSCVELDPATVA

B1: CEACAM6-BsAb (CD3 TA1-Fab x CEA-CAM6 VHH bispecific control antibody) (bispecific antibody, human IgG4 S228P, kappa, F234A L235A)
heavy: EVKLLESGGGLVQPKGSLKLSCAASGFTFNTYAMNWVRQAPGKGLEWVARIRSKYNNYATYYADSVKDRFTISRDDSQSILYLQMNNLKTEDTAMYYCVRHGNFGNSYVSWFAYWGQGTLVTVSSASTKGPSVFPLAPCSRSTSESTAALGCLVKDYFPEPVTVSWNSGALTSGVHTFPAVLQSSGLYSLSSVVTVPSSSLGTKTYTCNVDHKPSNTKVDKRVESKYGPPCPPCPAPEAAGGPSVFLFPPKPKDTLMISRTPEVTCVVVDVSQEDPEVQFNWYVDGVEVHNAKTKPREEQFNSTYRVVSVLTVLHQDWLNGKEYKCKVSNKGLPSSIEKTISKAKGQPREPQVYTLPPCQEEMTKNQVSLWCLVKGFYPSDIAVEWESNGQPENNYKTTPPVLDSDGSFFLYSRLTVDKSRWQEGNVFSCSVMHEALHNHYTQKSLSLSL
chain: QVKLEESGGGLVQAGGSLRLSCRTSGRTNSVYTMGWFRQAPGKEREFVAQIMWGAGTNTHYADSVKGRFTISRDSAESTVYLQMNSLKPEDTAVYYCAANRGIPIAGRQYDYWGQGTQVTVSSESKYGPPCPPCPAPEAAGGPSVFLFPPKPKDTLMISRTPEVTCVVVDVSQEDPEVQFNWYVDGVEVHNAKTKPREEQFNSTYRVVSVLTVLHQDWLNGKEYKCKVSNKGLPSSIEKTISKAKGQPREPQVCTLPPSQEEMTKNQVSLSCAVKGFYPSDIAVEWESNGQPENNYKTTPPVLDSDGSFFLVSRLTVDKSRWQEGNVFSCSVMHEALHNRFTQKSLSLSL
light: QAVVTQESALTTSPGETVTLTCRSSTGAVTTSNYANWVQEKPDHLFTGLIGGTNKRAPGVPARFSGSLIGDKAALTITGAQTEDEAIYFCALWYSNLWVFGGGTKVEIKRTVAAPSVFIFPPSDEQLKSGTASVVCLLNNFYPREAKVQWKVDNALQSGNSQESVTEQDSKDSTYSLSSTLTLSKADYEKHKVYACEVTHQGLSSPVTKSFNRGEC
notes: also called anti-CEA-CAM6-BsAb
For the molecule B1, the values for the Kd in test [1] and in test [2] were 5.73 nM and 1.64 nM, respectively. The koff in test [1] was determined as 0.00421 s⁻¹; in test [2] it was 0.000336 s⁻¹; in test [3], 0.00143 s⁻¹. In addition, the kon in test [1] was determined as 734000 M⁻¹ s⁻¹; in test [2], 206000 M⁻¹ s⁻¹; in test [3] it was 570000 M⁻¹ s⁻¹.

B2: CEA-BsAb bispecific control antibody (TA1-Fab anti-CD3 x CEA VHH) (bispecific antibody, human IgG4 S228P, kappa, F234A L235A)
heavy: EVKLLESGGGLVQPKGSLKLSCAASGFTFNTYAMNWVRQAPGKGLEWVARIRSKYNNYATYYADSVKDRFTISRDDSQSILYLQMNNLKTEDTAMYYCVRHGNFGNSYVSWFAYWGQGTLVTVSSASTKGPSVFPLAPCSRSTSESTAALGCLVKDYFPEPVTVSWNSGALTSGVHTFPAVLQSSGLYSLSSVVTVPSSSLGTKTYTCNVDHKPSNTKVDKRVESKYGPPCPPCPAPEAAGGPSVFLFPPKPKDTLMISRTPEVTCVVVDVSQEDPEVQFNWYVDGVEVHNAKTKPREEQFNSTYRVVSVLTVLHQDWLNGKEYKCKVSNKGLPSSIEKTISKAKGQPREPQVYTLPPCQEEMTKNQVSLWCLVKGFYPSDIAVEWESNGQPENNYKTTPPVLDSDGSFFLYSRLTVDKSRWQEGNVFSCSVMHEALHNHYTQKSLSLSL
chain: EVQLVESGGGFVQAGESLTLSCTSSTLTFTPYRMAWYRQAPGKQRDLVADISSGDGRTTNYADFAKGRFTISRDNIKNTVFLRMTNLKPEDTAVYYCNTFVSFVGIARSWGQGTQVTVSSESKYGPPCPPCPAPEAAGGPSVFLFPPKPKDTLMISRTPEVTCVVVDVSQEDPEVQFNWYVDGVEVHNAKTKPREEQFNSTYRVVSVLTVLHQDWLNGKEYKCKVSNKGLPSSIEKTISKAKGQPREPQVCTLPPSQEEMTKNQVSLSCAVKGFYPSDIAVEWESNGQPENNYKTTPPVLDSDGSFFLVSRLTVDKSRWQEGNVFSCSVMHEALHNRFTQKSLSLSL
light: QAVVTQESALTTSPGETVTLTCRSSTGAVTTSNYANWVQEKPDHLFTGLIGGTNKRAPGVPARFSGSLIGDKAALTITGAQTEDEAIYFCALWYSNLWVFGGGTKVEIKRTVAAPSVFIFPPSDEQLKSGTASVVCLLNNFYPREAKVQWKVDNALQSGNSQESVTEQDSKDSTYSLSSTLTLSKADYEKHKVYACEVTHQGLSSPVTKSFNRGEC
notes: IgG4
On to B2, for which the “absorbance ratio to PBS blank” value with Insulin was 1.24; in test [4] it was 2.16.

B3: CEA-CAM6-BsAb bispecific control antibody (TA1-Fab anti-CD3 x CEA-CAM6 VHH) (bispecific antibody, human IgG4 S228P, kappa, F234A L235A)
heavy: EVKLLESGGGLVQPKGSLKLSCAASGFTFNTYAMNWVRQAPGKGLEWVARIRSKYNNYATYYADSVKDRFTISRDDSQSILYLQMNNLKTEDTAMYYCVRHGNFGNSYVSWFAYWGQGTLVTVSSASTKGPSVFPLAPCSRSTSESTAALGCLVKDYFPEPVTVSWNSGALTSGVHTFPAVLQSSGLYSLSSVVTVPSSSLGTKTYTCNVDHKPSNTKVDKRVESKYGPPCPPCPAPEAAGGPSVFLFPPKPKDTLMISRTPEVTCVVVDVSQEDPEVQFNWYVDGVEVHNAKTKPREEQFNSTYRVVSVLTVLHQDWLNGKEYKCKVSNKGLPSSIEKTISKAKGQPREPQVYTLPPCQEEMTKNQVSLWCLVKGFYPSDIAVEWESNGQPENNYKTTPPVLDSDGSFFLYSRLTVDKSRWQEGNVFSCSVMHEALHNHYTQKSLSLSL
chain: QVKLEESGGGLVQAGGSLRLSCRTSGRTNSVYTMGWFRQAPGKEREFVAQIMWGAGTNTHYADSVKGRFTISRDSAESTVYLQMNSLKPEDTAVYYCAANRGIPIAGRQYDYWGQGTQVTVSSESKYGPPCPPCPAPEAAGGPSVFLFPPKPKDTLMISRTPEVTCVVVDVSQEDPEVQFNWYVDGVEVHNAKTKPREEQFNSTYRVVSVLTVLHQDWLNGKEYKCKVSNKGLPSSIEKTISKAKGQPREPQVCTLPPSQEEMTKNQVSLSCAVKGFYPSDIAVEWESNGQPENNYKTTPPVLDSDGSFFLVSRLTVDKSRWQEGNVFSCSVMHEALHNRFTQKSLSLSL
light: QAVVTQESALTTSPGETVTLTCRSSTGAVTTSNYANWVQEKPDHLFTGLIGGTNKRAPGVPARFSGSLIGDKAALTITGAQTEDEAIYFCALWYSNLWVFGGGTKVEIKRTVAAPSVFIFPPSDEQLKSGTASVVCLLNNFYPREAKVQWKVDNALQSGNSQESVTEQDSKDSTYSLSSTLTLSKADYEKHKVYACEVTHQGLSSPVTKSFNRGEC
notes: IgG4
In the case of B3, the “absorbance ratio to PBS blank” value amounted to 0.87 in the test with Insulin and 0.45 in test [4].

B4: HER2-BsAb bispecific control antibody (TA1-Fab anti-CD3 x HER2 VHH) (bispecific antibody, human IgG4 S228P, kappa, F234A L235A)
heavy: EVKLLESGGGLVQPKGSLKLSCAASGFTFNTYAMNWVRQAPGKGLEWVARIRSKYNNYATYYADSVKDRFTISRDDSQSILYLQMNNLKTEDTAMYYCVRHGNFGNSYVSWFAYWGQGTLVTVSSASTKGPSVFPLAPCSRSTSESTAALGCLVKDYFPEPVTVSWNSGALTSGVHTFPAVLQSSGLYSLSSVVTVPSSSLGTKTYTCNVDHKPSNTKVDKRVESKYGPPCPPCPAPEAAGGPSVFLFPPKPKDTLMISRTPEVTCVVVDVSQEDPEVQFNWYVDGVEVHNAKTKPREEQFNSTYRVVSVLTVLHQDWLNGKEYKCKVSNKGLPSSIEKTISKAKGQPREPQVYTLPPCQEEMTKNQVSLWCLVKGFYPSDIAVEWESNGQPENNYKTTPPVLDSDGSFFLYSRLTVDKSRWQEGNVFSCSVMHEALHNHYTQKSLSLSL
chain: QVQLVQSGGGLVQAGGSLRLSCAASGRTFSSYAMAWFRQAPGKEREFVAAISWSGANIYVADSVKGRFTISRDNAKDTVYLQMNSLKPEDTAVYYCAVKLGFAPVEERQYDYWGQGTQVTVSSESKYGPPCPPCPAPEAAGGPSVFLFPPKPKDTLMISRTPEVTCVVVDVSQEDPEVQFNWYVDGVEVHNAKTKPREEQFNSTYRVVSVLTVLHQDWLNGKEYKCKVSNKGLPSSIEKTISKAKGQPREPQVCTLPPSQEEMTKNQVSLSCAVKGFYPSDIAVEWESNGQPENNYKTTPPVLDSDGSFFLVSRLTVDKSRWQEGNVFSCSVMHEALHNRFTQKSLSLSL
light: QAVVTQESALTTSPGETVTLTCRSSTGAVTTSNYANWVQEKPDHLFTGLIGGTNKRAPGVPARFSGSLIGDKAALTITGAQTEDEAIYFCALWYSNLWVFGGGTKVEIKRTVAAPSVFIFPPSDEQLKSGTASVVCLLNNFYPREAKVQWKVDNALQSGNSQESVTEQDSKDSTYSLSSTLTLSKADYEKHKVYACEVTHQGLSSPVTKSFNRGEC
notes: IgG4
As for B4, the “absorbance ratio to PBS blank” value came out at 1.69 with Insulin and 2.31 in test [4].
